The values that follow come from US20170082635A1 (University of California, published 2017).

The chains are these.
T1: yeast 20 S proteasome subunit α6 (PRE5) (yeast, UniProt P40302 1-234)
T1 sequence (looked up): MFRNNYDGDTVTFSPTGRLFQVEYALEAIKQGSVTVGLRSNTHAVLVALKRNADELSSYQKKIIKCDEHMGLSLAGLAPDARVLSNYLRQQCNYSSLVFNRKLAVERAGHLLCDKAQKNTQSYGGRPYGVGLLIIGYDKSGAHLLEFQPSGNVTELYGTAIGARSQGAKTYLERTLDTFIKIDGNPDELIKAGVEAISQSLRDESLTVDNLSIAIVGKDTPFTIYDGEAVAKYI

T2: yeast 20 S proteasome subunit α3 (PRE9) (yeast, UniProt P23638 1-258)
T2 sequence (looked up): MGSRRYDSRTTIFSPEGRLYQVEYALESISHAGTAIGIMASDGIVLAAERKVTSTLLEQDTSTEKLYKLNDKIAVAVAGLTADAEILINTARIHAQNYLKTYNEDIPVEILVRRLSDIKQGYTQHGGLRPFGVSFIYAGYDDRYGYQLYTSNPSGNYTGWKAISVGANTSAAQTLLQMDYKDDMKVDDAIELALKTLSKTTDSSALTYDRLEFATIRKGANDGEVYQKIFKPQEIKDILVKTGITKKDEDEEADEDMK

B1: yeast 20 S proteasome subunit β6 (PRE7) (other, UniProt P23724 20-241, looked up)
chain: QFNPYGDNGGTILGIAGEDFAVLAGDTRNITDYSINSRYEPKVFDCGDNIVMSANGFAADGDALVKRFKNSVKWYHFDHNDKKLSINSAARNIQHLLYGKRFFPYYVHTIIAGLDEDGKGAVYSFDPVGSYEREQCRAGGAAASLIMPFLDNQVNFKNQYEPGTNGKVKKPLKYLSVEEVIKLVRDSFTSATERHIQVGDGLEILIVTKDGVRKEFYELKRD
notes: mature
B2: human proteasome subunit α3 (other, UniProt P25789 1-261, looked up)
chain: MSRRYDSRTTIFSPEGRLYQVEYAMEAIGHAGTCLGILANDGVLLAAERRNIHKLLDEVFFSEKIYKLNEDMACSVAGITSDANVLTNELRLIAQRYLLQYQEPIPCEQLVTALCDIKQAYTQFGGKRPFGVSLLYIGWDKHYGFQLYQSDPSGNYGGWKATCIGNNSAAAVSMLKQDYKEGEMTLKSALALAIKVLNKTMDVSKLSAEKVEIATLTRENGKTVIRVLKQKEVEQLIKKHEEEEAKAEREKKEKEQKEKDK
notes: whole, on cells; endogenous, cross-linked inside intact 293 cells, then purified with the HB-tagged bait under denaturing conditions; also called alpha3; alpha-3
B3: human proteasome subunit Rpn9 (other, UniProt Q9UNM6 1-376, looked up)
chain: MKDVPGFLQQSQNSGPGQPAVWHRLEELYTKKLWHQLTLQVLDFVQDPCFAQGDGLIKLYENFISEFEHRVNPLSLVEIILHVVRQMTDPNVALTFLEKTREKVKSSDEAVILCKTAIGALKLNIGDLQVTKETIEDVEEMLNNLPGVTSVHSRFYDLSSKYYQTIGNHASYYKDALRFLGCVDIKDLPVSEQQERAFTLGLAGLLGEGVFNFGELLMHPVLESLRNTDRQWLIDTLYAFNSGNVERFQTLKTAWGQQPDLAANEAQLLRKIQLLCLMEMTFTRPANHRQLTFEEIAKSAKITVNEVELLVMKALSVGLVKGSIDEVDKRVHMTWVQPRVLDLQQIKGMKDRLEFWCTDVKSMEMLVEHQAHDILT
notes: whole, on cells; endogenous, cross-linked inside intact 293 cells, purified with the HB-tagged bait; also called Q9UNM6
B4: yeast 20 S proteasome subunit β3 (PUP3) (other, UniProt P25451 1-205, looked up)
chain: MSDPSSINGGIVVAMTGKDCVAIACDLRLGSQSLGVSNKFEKIFHYGHVFLGITGLATDVTTLNEMFRYKTNLYKLKEERAIEPETFTQLVSSSLYERRFGPYFVGPVVAGINSKSGKPFIAGFDLIGCIDEAKDFIVSGTASDQLFGMCESLYEPNLEPEDLFETISQALLNAADRDALSGWGAVVYIIKKDEVVKRYLKMRQD
B5: yeast 20 S proteasome subunit β4 (PRE1) (other, UniProt P22141 1-198, looked up)
chain: MDIILGIRVQDSVILASSKAVTRGISVLKDSDDKTRQLSPHTLMSFAGEAGDTVQFAEYIQANIQLYSIREDYELSPQAVSSFVRQELAKSIRSRRPYQVNVLIGGYDKKKNKPELYQIDYLGTKVELPYGAHGYSGFYTFSLLDHHYRPDMTTEEGLDLLKLCVQELEKRMPMDFKGVIVKIVDKDGIRQVDDFQAQ

Assay [1] deals with T1, yeast 20 S proteasome subunit α6 (PRE5). The experiment in a line: DSSO XL-MS of purified yeast 20S proteasome.
The target in another assay is T3, HB-Rpt6 (human, UniProt P62195 2-406).
T3 construct: whole, on cells; stably expressed in 293 cells; used for all links whose Bait column says Rpt6; residue numbers count on P62195, not on the tagged construct; also called Rpt6 (bait); HB tagged proteasome subunit Rpt6; not shown: HB (His-bio) tag, written before Rpt6
The experiment in a line: in vivo azide-A-DSBSO XL-MS of HB-tag purified human proteasome.

The target in assay [2] is T4, human proteasome subunit Rpn5 (human, UniProt O00232 2-456).
T4 construct: whole, on cells; endogenous, cross-linked inside intact 293 cells, purified with the HB-tagged bait; also called O00232
The assay is described as above.

Assay [3] has as its target T2, yeast 20 S proteasome subunit α3 (PRE9). Put plainly: DSSO XL-MS of purified yeast 20S proteasome.
In assay [4] the target is B4. Put plainly: DSSO XL-MS of purified yeast 20S proteasome.

Consider B1, for which the binding result in assay [1] is listed as “binds”.

Turning to B2, the binding result in the assay with HB-Rpt6 is listed as “binds”.

Turning to B3, the binding result in assay [2] was “binds”.

In the case of B4, the binding result in assay [3] is “binds”.

On to B5, for which the binding result in assay [4] was “binds”.
